Experimental data: patent publication US20030049246A1

Key:
[1] = target: SHH (chick, endogenous in cerebellar cortical explants) (chick) (UniProt Q91035); experiment: cell-based or functional assay
[2] = target: SHH (mouse, endogenous in purified granule neuron precursor aggregates) (mouse) (UniProt Q62226); experiment: cell-based or functional assay
Chain of SHH (mouse, endogenous in purified granule neuron precursor aggregates) (mouse) (Q62226 25-198 limits assumed): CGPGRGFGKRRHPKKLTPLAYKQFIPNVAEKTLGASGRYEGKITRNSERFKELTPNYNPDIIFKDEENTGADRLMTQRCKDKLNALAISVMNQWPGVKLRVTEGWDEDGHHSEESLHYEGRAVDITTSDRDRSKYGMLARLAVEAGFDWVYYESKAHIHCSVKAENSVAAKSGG

Chain of SHH (chick, endogenous in cerebellar cortical explants) (chick) (Q91035 27-200 limits assumed): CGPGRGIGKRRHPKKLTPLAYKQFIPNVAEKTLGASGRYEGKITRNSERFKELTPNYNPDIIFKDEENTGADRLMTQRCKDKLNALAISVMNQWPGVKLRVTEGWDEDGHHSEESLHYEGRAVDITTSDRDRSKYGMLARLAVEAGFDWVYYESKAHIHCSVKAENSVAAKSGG

What does the source list for “blocking anti-SHH monoclonal antibody 5E1”?
fold decrease in BrdU incorporation inside D10 chick cerebellar explants (96 h) [1]: 3 to 4 fold; fold decrease in proliferation of purified mouse granule neuron aggregates [2]: 3 to 4 fold
